Positions count from the first letter of the chain named. In names and notes the source's numbering stands. Blank lines part the entries; values can stand above or below the molecule they belong to.
Experiments:
Assay in all cases: GST fusion protein pulldown assay, quantified immunoblot (α-tubulin)
Purified bovine tubulin = Purified bovine tubulin (UniProt Q6B856); conditions: parent: est. 100, read off a plot
[1] = molecular target: T1, Purified bovine tubulin, Q6B856; conditions: chain shown with the change
T1 chain: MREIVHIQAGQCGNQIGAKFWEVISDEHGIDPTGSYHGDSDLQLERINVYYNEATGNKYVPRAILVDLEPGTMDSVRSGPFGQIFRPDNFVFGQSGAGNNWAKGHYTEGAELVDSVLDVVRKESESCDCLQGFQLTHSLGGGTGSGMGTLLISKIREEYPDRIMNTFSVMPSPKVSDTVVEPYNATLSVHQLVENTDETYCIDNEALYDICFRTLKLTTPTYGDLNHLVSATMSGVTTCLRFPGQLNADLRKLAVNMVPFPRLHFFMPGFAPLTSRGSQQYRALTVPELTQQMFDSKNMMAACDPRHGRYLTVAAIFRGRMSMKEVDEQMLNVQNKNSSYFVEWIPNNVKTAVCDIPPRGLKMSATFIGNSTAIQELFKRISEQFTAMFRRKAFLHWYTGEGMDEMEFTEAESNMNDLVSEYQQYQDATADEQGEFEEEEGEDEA

[2] = molecular target: Tubulin from rat brain extracts, P68370;Q3KRE8; conditions: chain shown with the change; rat brain cytosolic extracts; parent: est. 100; read off a plot
[3] = parent: est. 100, read off a plot

percent of parent (Purified bovine tubulin): 20 % of AT1R CT
Molecule: GST fusion protein encoding the C-terminus (CT) of the angiotensin II type 1 receptor (AT1R) K310E

percent of parent (Purified bovine tubulin): 52 % of AT1R CT
Molecule: GST fusion protein encoding the C-terminus (CT) of the angiotensin II type 1 receptor (AT1R) K311E

percent of parent [1, 3]: 83 % of AT1R CT
B1: GST fusion protein encoding the C-terminus (CT) of the angiotensin II type 1 receptor (AT1R) K307E (protein)
chain: LGEKFKKYFLQLLKYIPPKAKSHSSLSTKMSTLSYRPSDNMSSSAKKPASCFEVE

percent of parent [1, 3]: 5 % of AT1R CT
percent of parent ([1]; purified tubulin, parent: est. 100, read off a plot): 4 % of AT1R CT
percent of parent [2]: 12 % of AT1R CT
B2: GST fusion protein encoding the C-terminus (CT) of the angiotensin II type 1 receptor (AT1R) K307E; K308E; K310E; K311E (protein)
chain: B1 chain with K4E, K6E, K7E

percent of parent [1, 3]: 100 % of AT1R CT
B3: GST fusion protein encoding the C-terminus (CT) of the angiotensin II type 1 receptor (AT1R) K308E (protein)
chain: B1 chain with E3K, K4E

Reference: publication PMC3581488
